Source: patent US20160053277A1, “Compositions Having Dicamba Decarboxylase Activity and Methods of Use” (PIONEER HI-BRED INTERNATIONAL, INC., priority 2013, published 2016)

Experiment: Saturation mutagenesis of SEQ ID NO:109: dicamba decarboxylation activity of point mutants (carbon dioxide released)
[1] = dicamba decarboxylation activity of point mutants of SEQ ID NO: 109, relative to unchanged template
[2] = point mutation in SEQ ID NO: 109

Row | Molecule | Average Activity (Fold of SEQ ID NO: 109) [1] | Average Activity (Fold of SEQ ID NO: 109) [2]
1 | R212Q: point mutant of SEQ ID NO: 109 (protein, Dicamba decarboxylase variant clone: DC.4.032) MAQGKVALEEHFAIPETLQDSAGFVPGDYWKELQHRLLDIQDTRLKLMDAHGIETMILSLNAPAVQAIPDRRKAIEIARRANDVLAEECAKRPDRFLAFAALPLQDPDAATEELQRCVNDLGFVGALVNGFSQEGDGQTPLYYDLPQYRPFWGEVEKLDVPFYLHPRNPLPQDSRIYDGHPWLLGPTWAFAQETAVHALRLMASGLFDEHPQLNIILGHMGEGLPYMMWRIDHRVAWVKLPPRYPAKRRFMDYFNENFHITTSGNFRTQTLIDAILEIGADRILFSTDWPFENIDHASDWFNATSIAEADRVKIGRTNARRLFKLDGA | 1.7 Fold of SEQ ID NO: 109 | 1.7 Fold of SEQ ID NO: 109
2 | W229Y: point mutant of SEQ ID NO: 109 (protein, Dicamba decarboxylase variant clone: DC.4.032) MAQGKVALEEHFAIPETLQDSAGFVPGDYWKELQHRLLDIQDTRLKLMDAHGIETMILSLNAPAVQAIPDRRKAIEIARRANDVLAEECAKRPDRFLAFAALPLQDPDAATEELQRCVNDLGFVGALVNGFSQEGDGQTPLYYDLPQYRPFWGEVEKLDVPFYLHPRNPLPQDSRIYDGHPWLLGPTWAFAQETAVHALRLMASGLFDEHPRLNIILGHMGEGLPYMMYRIDHRVAWVKLPPRYPAKRRFMDYFNENFHITTSGNFRTQTLIDAILEIGADRILFSTDWPFENIDHASDWFNATSIAEADRVKIGRTNARRLFKLDGA | 1.7 Fold of SEQ ID NO: 109 | 1.7 Fold of SEQ ID NO: 109
3 | N214Q: point mutant of SEQ ID NO: 109 (protein, Dicamba decarboxylase variant clone: DC.4.032) MAQGKVALEEHFAIPETLQDSAGFVPGDYWKELQHRLLDIQDTRLKLMDAHGIETMILSLNAPAVQAIPDRRKAIEIARRANDVLAEECAKRPDRFLAFAALPLQDPDAATEELQRCVNDLGFVGALVNGFSQEGDGQTPLYYDLPQYRPFWGEVEKLDVPFYLHPRNPLPQDSRIYDGHPWLLGPTWAFAQETAVHALRLMASGLFDEHPRLQIILGHMGEGLPYMMWRIDHRVAWVKLPPRYPAKRRFMDYFNENFHITTSGNFRTQTLIDAILEIGADRILFSTDWPFENIDHASDWFNATSIAEADRVKIGRTNARRLFKLDGA | 1.8 Fold of SEQ ID NO: 109 | 1.8 Fold of SEQ ID NO: 109
4 | L240E: point mutant of SEQ ID NO: 109 (protein, Dicamba decarboxylase variant clone: DC.4.032) MAQGKVALEEHFAIPETLQDSAGFVPGDYWKELQHRLLDIQDTRLKLMDAHGIETMILSLNAPAVQAIPDRRKAIEIARRANDVLAEECAKRPDRFLAFAALPLQDPDAATEELQRCVNDLGFVGALVNGFSQEGDGQTPLYYDLPQYRPFWGEVEKLDVPFYLHPRNPLPQDSRIYDGHPWLLGPTWAFAQETAVHALRLMASGLFDEHPRLNIILGHMGEGLPYMMWRIDHRVAWVKEPPRYPAKRRFMDYFNENFHITTSGNFRTQTLIDAILEIGADRILFSTDWPFENIDHASDWFNATSIAEADRVKIGRTNARRLFKLDGA | 2.1 Fold of SEQ ID NO: 109 | 2.1 Fold of SEQ ID NO: 109
5 | R243A: point mutant of SEQ ID NO: 109 (protein, Dicamba decarboxylase variant clone: DC.4.032) MAQGKVALEEHFAIPETLQDSAGFVPGDYWKELQHRLLDIQDTRLKLMDAHGIETMILSLNAPAVQAIPDRRKAIEIARRANDVLAEECAKRPDRFLAFAALPLQDPDAATEELQRCVNDLGFVGALVNGFSQEGDGQTPLYYDLPQYRPFWGEVEKLDVPFYLHPRNPLPQDSRIYDGHPWLLGPTWAFAQETAVHALRLMASGLFDEHPRLNIILGHMGEGLPYMMWRIDHRVAWVKLPPAYPAKRRFMDYFNENFHITTSGNFRTQTLIDAILEIGADRILFSTDWPFENIDHASDWFNATSIAEADRVKIGRTNARRLFKLDGA | 1.8 Fold of SEQ ID NO: 109 | 1.8 Fold of SEQ ID NO: 109
6 | L240A: point mutant of SEQ ID NO: 109 (protein, Dicamba decarboxylase variant clone: DC.4.032) MAQGKVALEEHFAIPETLQDSAGFVPGDYWKELQHRLLDIQDTRLKLMDAHGIETMILSLNAPAVQAIPDRRKAIEIARRANDVLAEECAKRPDRFLAFAALPLQDPDAATEELQRCVNDLGFVGALVNGFSQEGDGQTPLYYDLPQYRPFWGEVEKLDVPFYLHPRNPLPQDSRIYDGHPWLLGPTWAFAQETAVHALRLMASGLFDEHPRLNIILGHMGEGLPYMMWRIDHRVAWVKAPPRYPAKRRFMDYFNENFHITTSGNFRTQTLIDAILEIGADRILFSTDWPFENIDHASDWFNATSIAEADRVKIGRTNARRLFKLDGA | 2.3 Fold of SEQ ID NO: 109 | –
7 | S298T: point mutant of SEQ ID NO: 109 (protein, Dicamba decarboxylase variant clone: DC.4.032) MAQGKVALEEHFAIPETLQDSAGFVPGDYWKELQHRLLDIQDTRLKLMDAHGIETMILSLNAPAVQAIPDRRKAIEIARRANDVLAEECAKRPDRFLAFAALPLQDPDAATEELQRCVNDLGFVGALVNGFSQEGDGQTPLYYDLPQYRPFWGEVEKLDVPFYLHPRNPLPQDSRIYDGHPWLLGPTWAFAQETAVHALRLMASGLFDEHPRLNIILGHMGEGLPYMMWRIDHRVAWVKLPPRYPAKRRFMDYFNENFHITTSGNFRTQTLIDAILEIGADRILFSTDWPFENIDHATDWFNATSIAEADRVKIGRTNARRLFKLDGA | 2.3 Fold of SEQ ID NO: 109 | –
8 | S298A: point mutant of SEQ ID NO: 109 (protein, Dicamba decarboxylase variant clone: DC.4.032) MAQGKVALEEHFAIPETLQDSAGFVPGDYWKELQHRLLDIQDTRLKLMDAHGIETMILSLNAPAVQAIPDRRKAIEIARRANDVLAEECAKRPDRFLAFAALPLQDPDAATEELQRCVNDLGFVGALVNGFSQEGDGQTPLYYDLPQYRPFWGEVEKLDVPFYLHPRNPLPQDSRIYDGHPWLLGPTWAFAQETAVHALRLMASGLFDEHPRLNIILGHMGEGLPYMMWRIDHRVAWVKLPPRYPAKRRFMDYFNENFHITTSGNFRTQTLIDAILEIGADRILFSTDWPFENIDHAADWFNATSIAEADRVKIGRTNARRLFKLDGA | 2.1 Fold of SEQ ID NO: 109 | 2.1 Fold of SEQ ID NO: 109
9 | K239H: point mutant of SEQ ID NO: 109 (protein, Dicamba decarboxylase variant clone: DC.4.032) MAQGKVALEEHFAIPETLQDSAGFVPGDYWKELQHRLLDIQDTRLKLMDAHGIETMILSLNAPAVQAIPDRRKAIEIARRANDVLAEECAKRPDRFLAFAALPLQDPDAATEELQRCVNDLGFVGALVNGFSQEGDGQTPLYYDLPQYRPFWGEVEKLDVPFYLHPRNPLPQDSRIYDGHPWLLGPTWAFAQETAVHALRLMASGLFDEHPRLNIILGHMGEGLPYMMWRIDHRVAWVHLPPRYPAKRRFMDYFNENFHITTSGNFRTQTLIDAILEIGADRILFSTDWPFENIDHASDWFNATSIAEADRVKIGRTNARRLFKLDGA | 1.8 Fold of SEQ ID NO: 109 | 1.8 Fold of SEQ ID NO: 109
10 | V235I: point mutant of SEQ ID NO: 109 (protein, Dicamba decarboxylase variant clone: DC.4.032) MAQGKVALEEHFAIPETLQDSAGFVPGDYWKELQHRLLDIQDTRLKLMDAHGIETMILSLNAPAVQAIPDRRKAIEIARRANDVLAEECAKRPDRFLAFAALPLQDPDAATEELQRCVNDLGFVGALVNGFSQEGDGQTPLYYDLPQYRPFWGEVEKLDVPFYLHPRNPLPQDSRIYDGHPWLLGPTWAFAQETAVHALRLMASGLFDEHPRLNIILGHMGEGLPYMMWRIDHRIAWVKLPPRYPAKRRFMDYFNENFHITTSGNFRTQTLIDAILEIGADRILFSTDWPFENIDHASDWFNATSIAEADRVKIGRTNARRLFKLDGA | 1.8 Fold of SEQ ID NO: 109 | 1.8 Fold of SEQ ID NO: 109
11 | E16A: point mutant of SEQ ID NO: 109 (protein, Dicamba decarboxylase variant clone: DC.4.032) MAQGKVALEEHFAIPATLQDSAGFVPGDYWKELQHRLLDIQDTRLKLMDAHGIETMILSLNAPAVQAIPDRRKAIEIARRANDVLAEECAKRPDRFLAFAALPLQDPDAATEELQRCVNDLGFVGALVNGFSQEGDGQTPLYYDLPQYRPFWGEVEKLDVPFYLHPRNPLPQDSRIYDGHPWLLGPTWAFAQETAVHALRLMASGLFDEHPRLNIILGHMGEGLPYMMWRIDHRVAWVKLPPRYPAKRRFMDYFNENFHITTSGNFRTQTLIDAILEIGADRILFSTDWPFENIDHASDWFNATSIAEADRVKIGRTNARRLFKLDGA | 1.8 Fold of SEQ ID NO: 109 | –
12 | L240D: point mutant of SEQ ID NO: 109 (protein, Dicamba decarboxylase variant clone: DC.4.032) MAQGKVALEEHFAIPETLQDSAGFVPGDYWKELQHRLLDIQDTRLKLMDAHGIETMILSLNAPAVQAIPDRRKAIEIARRANDVLAEECAKRPDRFLAFAALPLQDPDAATEELQRCVNDLGFVGALVNGFSQEGDGQTPLYYDLPQYRPFWGEVEKLDVPFYLHPRNPLPQDSRIYDGHPWLLGPTWAFAQETAVHALRLMASGLFDEHPRLNIILGHMGEGLPYMMWRIDHRVAWVKDPPRYPAKRRFMDYFNENFHITTSGNFRTQTLIDAILEIGADRILFSTDWPFENIDHASDWFNATSIAEADRVKIGRTNARRLFKLDGA | 2.2 Fold of SEQ ID NO: 109 | –
